According to US20230357395A1 (MARENGO THERAPEUTICS, published 2023):
Where a chain is given by its changes, count along the chain named.

B1: BIM0460 (Example 8; format not stated) (antibody, V domains shown)
VH: QVQLVQSGAEVKKPGSSVKVSCKASGYTFTGYVMHWVRQAPGQGLEWMGFINPYNDDIQSNERFRGRVTITSDKSTTTAYMELSSLRSEDTAVYYCARGAGYNFDGAYRFFDFWGQGTLVTVSS
VL: DVVMTQSPLSLPVTLGQPASISCRSSQRLVHSNGNTYLHWYQQRPGQSPRLLIYRVSNRFPGVPDRFSGSGSGTDFTLKISRVEAEDVGVYFCSQSTHVPYTFGGGTKVEIK
notes: Humanized JOVI.1 variant
B2: BJM0578 (Example 8; format not stated) (antibody, V domains shown)
VH: QVQLVQSGAEVKKPGSSVKVSCKASGYTFTGYVMHWVRQAPGQGLEWMGFIIPIFGTANYAQKFQGRVTITSDKSTTTAYMELSSLRSEDTAVYYCARGAGYNFDGAYRFFDFWGQGTLVTVSS
VL: B1 VL
notes: Germlined variant of BIM0460
B3: BKM0098 (anti-TRBC2/NKp30 bispecific antibody) (bispecific antibody, human IgG1, kappa, N297A)
heavy: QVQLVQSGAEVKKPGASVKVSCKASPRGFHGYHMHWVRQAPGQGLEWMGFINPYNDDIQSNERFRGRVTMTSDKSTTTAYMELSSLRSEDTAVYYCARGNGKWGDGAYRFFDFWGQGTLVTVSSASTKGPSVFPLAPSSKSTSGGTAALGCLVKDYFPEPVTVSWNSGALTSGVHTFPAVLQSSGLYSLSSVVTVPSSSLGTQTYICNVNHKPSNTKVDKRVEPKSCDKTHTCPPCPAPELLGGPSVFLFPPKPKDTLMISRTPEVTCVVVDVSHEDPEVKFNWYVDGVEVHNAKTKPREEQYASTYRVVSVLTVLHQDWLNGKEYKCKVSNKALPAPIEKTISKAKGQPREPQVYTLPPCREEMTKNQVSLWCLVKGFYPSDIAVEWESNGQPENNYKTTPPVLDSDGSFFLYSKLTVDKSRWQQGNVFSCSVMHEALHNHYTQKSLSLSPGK
light: DVVMTQSPLSLPVTPGEPASISCRSSQNLVHSNGRTYLQWYLQKPGQSPQLLIYRVSNRFPGVPDRFSGSGSGTDFTLKISRVEAEDVGVYFCSQSTHVPYTFGGGTKVEIKRTVAAPSVFIFPPSDEQLKSGTASVVCLLNNFYPREAKVQWKVDNALQSGNSQESVTEQDSKDSTYSLSSTLTLSKADYEKHKVYACEVTHQGLSSPVTKSFNRGEC
scFv: EIQLLESGGGLVQPGGSLRLSCAVSGFSITTTGYHWNWVRQAPGKGLEWVGYIYSSGSTSYNPSLKSRFTISRDTSKNTFYLQMNSLRAEDTAVYYCARGDWHYFDYWGQGTMVTVSSGGGGSGGGGSGGGGSGGGGSDSVTTQSPLSLPVTLGQPASISCSGEKLSDKYVHWYQQRPGQSPRMLIYENDRRPSGVPDRFSGSNSGNDATLKISRVEAEDVGVYFCQFWDSTNSAVFGGGTKVEIKDKTHTCPPCPAPELLGGPSVFLFPPKPKDTLMISRTPEVTCVVVDVSHEDPEVKFNWYVDGVEVHNAKTKPREEQYASTYRVVSVLTVLHQDWLNGKEYKCKVSNKALPAPIEKTISKAKGQPREPQVCTLPPSREEMTKNQVSLSCAVKGFYPSDIAVEWESNGQPENNYKTTPPVLDSDGSFFLVSKLTVDKSRWQQGNVFSCSVMHEALHNHYTQKSLSLSPGK
notes: Anti-TRBC2 Fab-Fc and anti-NKp30 scFv-Fc; also called Anti-TRBC2-NKp30-BKM0098; Parental Bispecific
B4: BKM0312 (anti-TRBC2/NKp30 bispecific antibody) (bispecific antibody)
chain 1: not shown
chain 2: B3 light with P15L, E17Q, Q27K, L42Q, K44R, Q50R, H98R, V99E
chain 3: B3 scFv
B5: BKM0240 (anti-TRBC2/NKp30 bispecific antibody) (bispecific antibody, human IgG1, kappa, N297A)
heavy: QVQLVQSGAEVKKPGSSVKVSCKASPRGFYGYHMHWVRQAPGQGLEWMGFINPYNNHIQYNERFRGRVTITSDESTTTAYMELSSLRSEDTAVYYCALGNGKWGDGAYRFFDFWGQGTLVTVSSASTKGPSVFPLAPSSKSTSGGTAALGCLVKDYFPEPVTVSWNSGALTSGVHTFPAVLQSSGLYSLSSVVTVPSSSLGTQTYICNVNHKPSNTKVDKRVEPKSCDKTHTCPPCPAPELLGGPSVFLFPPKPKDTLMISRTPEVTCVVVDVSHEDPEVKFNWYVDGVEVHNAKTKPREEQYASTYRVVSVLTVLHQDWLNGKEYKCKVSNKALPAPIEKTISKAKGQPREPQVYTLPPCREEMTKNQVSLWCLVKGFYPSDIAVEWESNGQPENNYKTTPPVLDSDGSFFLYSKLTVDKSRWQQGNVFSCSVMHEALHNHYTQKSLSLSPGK
light: B3 light with P15L, E17Q, Q27K, L42Q, K44R, Q50R, H98R, V99E
scFv: B3 scFv
notes: also called Parental Bispecific
B6: BKM0313 (TRBC2/NKp30 bispecific) (bispecific antibody, human IgG1, kappa, N297A)
heavy: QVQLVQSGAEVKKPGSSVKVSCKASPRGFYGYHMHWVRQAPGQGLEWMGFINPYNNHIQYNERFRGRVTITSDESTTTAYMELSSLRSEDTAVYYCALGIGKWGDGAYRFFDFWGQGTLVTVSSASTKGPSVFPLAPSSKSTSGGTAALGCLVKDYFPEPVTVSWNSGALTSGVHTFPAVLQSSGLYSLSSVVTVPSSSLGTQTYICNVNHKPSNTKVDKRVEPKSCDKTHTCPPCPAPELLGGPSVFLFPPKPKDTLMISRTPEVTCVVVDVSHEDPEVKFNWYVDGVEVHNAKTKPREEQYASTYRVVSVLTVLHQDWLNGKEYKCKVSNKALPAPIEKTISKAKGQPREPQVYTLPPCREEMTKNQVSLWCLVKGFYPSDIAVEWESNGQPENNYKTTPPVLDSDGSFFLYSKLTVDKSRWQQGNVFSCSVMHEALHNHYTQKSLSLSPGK
light: B3 light with P15L, E17Q, Q27K, L42Q, K44R, Q50R, H98R, V99E
scFv: B3 scFv
notes: Knob chain TRBC2 Fab-Fc and hole chain NKp30 scFv-Fc; also called Anti-TRBC2-NKp30-BIS-9
B7: BKM0311 (anti-TRBC2/NKp30 bispecific antibody) (bispecific antibody, human IgG1, kappa, N297A)
heavy: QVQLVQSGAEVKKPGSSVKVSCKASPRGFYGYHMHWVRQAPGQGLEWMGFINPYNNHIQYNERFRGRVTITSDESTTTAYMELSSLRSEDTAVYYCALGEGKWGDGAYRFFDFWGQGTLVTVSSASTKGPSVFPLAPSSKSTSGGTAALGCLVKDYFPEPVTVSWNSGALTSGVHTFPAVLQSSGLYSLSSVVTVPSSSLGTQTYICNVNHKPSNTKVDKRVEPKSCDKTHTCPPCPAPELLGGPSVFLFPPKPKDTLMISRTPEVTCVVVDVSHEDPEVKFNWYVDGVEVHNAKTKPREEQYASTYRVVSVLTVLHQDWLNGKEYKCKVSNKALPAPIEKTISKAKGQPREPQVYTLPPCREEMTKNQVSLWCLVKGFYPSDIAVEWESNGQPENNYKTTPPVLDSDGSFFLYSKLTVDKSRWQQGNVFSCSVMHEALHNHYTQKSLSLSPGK
light: B3 light with P15L, E17Q, Q27K, L42Q, K44R, Q50R, H98R, V99E
scFv: B3 scFv
B8: BKM0314 (TRBC2/NKp30 bispecific) (bispecific antibody, human IgG1, kappa, N297A)
heavy: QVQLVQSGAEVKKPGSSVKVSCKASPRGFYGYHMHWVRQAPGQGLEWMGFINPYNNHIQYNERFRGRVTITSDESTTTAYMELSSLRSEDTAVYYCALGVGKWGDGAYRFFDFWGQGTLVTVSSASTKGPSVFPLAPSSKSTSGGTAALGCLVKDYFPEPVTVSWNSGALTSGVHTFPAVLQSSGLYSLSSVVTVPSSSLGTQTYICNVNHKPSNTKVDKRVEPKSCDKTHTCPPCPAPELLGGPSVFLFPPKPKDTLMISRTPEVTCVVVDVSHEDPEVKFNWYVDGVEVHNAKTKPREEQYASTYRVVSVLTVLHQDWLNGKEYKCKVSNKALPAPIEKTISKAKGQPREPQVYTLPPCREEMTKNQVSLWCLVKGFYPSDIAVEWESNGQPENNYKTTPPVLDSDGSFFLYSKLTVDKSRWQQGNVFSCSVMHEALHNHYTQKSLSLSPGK
light: B3 light with P15L, E17Q, Q27K, L42Q, K44R, Q50R, H98R, V99E
scFv: B3 scFv
notes: Knob chain TRBC2 Fab-Fc and hole chain NKp30 scFv-Fc; also called Anti-TRBC2-NKp30-BIS-10

biological target: T1, human TRBC1 (construct not named) (human, UniProt P01850 1-129, limits assumed); experiment: method not stated
T1 construct: also called hTRBC1
T1 sequence (P01850 1-129 limits assumed): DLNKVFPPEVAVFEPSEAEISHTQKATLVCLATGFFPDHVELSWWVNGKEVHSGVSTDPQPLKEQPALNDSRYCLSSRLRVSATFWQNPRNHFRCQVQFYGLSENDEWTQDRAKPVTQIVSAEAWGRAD

First: B1
Second: B2
The Kd of the first is 6.5-fold lower: 17 nM for the first, 110 nM for the second.

biological target: T2, human TRBC2 (construct not named) (human, UniProt A0A5B9 1-129, limits assumed); experiment: SPR, bispecific captured via anti-human Fc on CM5, hTRBC2 from 125 nM in two-fold dilutions, 1:1 fit
T2 construct: also called hTRBC2
Protocol: (§1) In this example, surface plasmon resonance assay was performed to check binding of anti-TRBC2xNKp30 bispecific antibodies (bispecifics) to either hTRBC2, hTRBC1 or hNKp30 proteins. […] The bispecific antibodies may or may not have an N297A mutation in their Fc regions. FIG. 31B represents a design for monovalent TRBC2 control. Briefly, TRBC2xNKp30 bispecifics at 2 ug/mL were immobilized on CM5 chip via anti-human Fc antibody to 70 RU. Human TRBC2 or human TRBC1 antigens were diluted to 125 nM and then serially diluted two-fold. Association was 300 seconds and dissociation were 600 seconds. This assay was run in 1 x HBS-EP+ Buffer pH 7.4 and 25 C. The data was fit using a 1:1 binding model assess binding of bispecifics to NKp30, human NKp30 at 2 ug/mL was immobilized on CM5 chip via Anti-mouse Fc antibody to 70 RU. TRBC2xNKp30 bispecifics were diluted to 50 nM and then serially diluted two-fold. Association was 300 seconds and dissociation were 600 seconds. This assay was run in 1 x HBS-EP+ Buffer pH 7.4 and 25 C. The data was fit using a 1:1 binding model.

T2 sequence (A0A5B9 1-129 limits assumed): as the sequence (P01850 1-129 limits assumed) above, with N3K, K4N, E9K, F36Y counted along it

Going from B3 to B4, the Kd falls from 89 nM to 31 nM (2.9-fold).

Compared with B5, B6 is 5.3-fold higher in Kd: 28 nM for the first, 148 nM for the second.

Going from B7 to B8, the Kd rises from 9.2 nM to 92 nM (10-fold). The first binds more tightly here.

biological target: T3, human NKp30 (construct not named) (human, UniProt O14931 19-135, limits assumed); experiment: SPR, human NKp30 captured via anti-mouse Fc on CM5, bispecific from 50 nM in two-fold dilutions, 1:1 fit
T3 construct: also called hNKp30
T3 sequence (looked up): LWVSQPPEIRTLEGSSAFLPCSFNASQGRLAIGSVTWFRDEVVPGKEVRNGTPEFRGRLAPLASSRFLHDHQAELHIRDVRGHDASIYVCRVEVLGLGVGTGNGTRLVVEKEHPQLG
Protocol: as §1

B3 and B4 are within 1.5-fold of each other in Kd: 0.63 nM for the first, 0.54 nM for the second.

B5 and B7 are within 1.5-fold of each other in Kd: 0.58 nM for the first, 0.63 nM for the second.

biological target: T4, NKp30 on KHYG-1 NK cells (human, UniProt O14931 19-201); experiment: flow cytometry on NKp30+ KHYG-1 cells, antibody 200 nM to 0.003387 nM
T4 construct: whole, on cells; also called NK cell line KHYG-1; NKp30+ KHYG-1 cells
T4 sequence (looked up): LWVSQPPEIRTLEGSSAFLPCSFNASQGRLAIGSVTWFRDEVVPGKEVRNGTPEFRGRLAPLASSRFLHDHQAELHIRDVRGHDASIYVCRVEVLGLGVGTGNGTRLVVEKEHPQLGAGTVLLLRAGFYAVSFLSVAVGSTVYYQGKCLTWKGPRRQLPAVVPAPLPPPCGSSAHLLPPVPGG
Protocol: (§2) A flow cytometry-based assay was performed to check binding of anti-TRBC2x NKp30 to either TRBC2+ HPB-ALL cells, TRBC1+ Jurkat cells or NKp30+ KHYG-1 cells.
(§3) Each antibody was diluted to 200 nM and then serially diluted three-fold down to 0.003387 nM. Antibodies were incubated with each cell line for 1 hour at 4C. […] Zombie UV (BioLegend 423107) viability dye was added to the cells 1:1000 and incubated for 30 minutes at room temperature. Cells were analyzed on the CytoFlex LX flow cytometer.

Going from B3 to B4, the EC50 falls from 4 nM to 1.1 nM (3.6-fold). The second is the more potent here.

Compared with B5, B7 is 4.5-fold lower in EC50: 1.5 nM for the first, 0.33 nM for the second.

biological target: T5, TRBC2 on TRBC2+ cell lines (HPB-ALL; HH; HDMAR2) (human, UniProt A0A5B9 1-178); experiment: flow cytometry on TRBC2+ HPB-ALL cells, antibody 200 nM to 0.003387 nM
T5 construct: whole, on cells; also called TRBC2+ HPB-ALL cells
Protocol: as §2, §3

T5 sequence (A0A5B9 whole entry): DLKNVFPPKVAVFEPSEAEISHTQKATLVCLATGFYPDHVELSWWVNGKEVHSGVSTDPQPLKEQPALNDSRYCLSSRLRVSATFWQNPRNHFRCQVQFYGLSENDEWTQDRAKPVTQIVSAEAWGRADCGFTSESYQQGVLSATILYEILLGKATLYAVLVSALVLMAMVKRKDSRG

Going from B3 to B4, the EC50 falls from 4 nM to 1.1 nM (3.6-fold).

Compared with B5, B7 is 4.5-fold lower in EC50: 1.5 nM for the first, 0.33 nM for the second. The second is the more potent here.
